According to patent US12404345B2, “Humanized antibodies against iRHOM2” (SCIRHOM GMBH, priority 2021, dated 2025):

Target: T1, endogenous iRhom2 on RPMI-8226 cells (Homo sapiens, UniProt Q6PJF5)
T1 construct: RPMI-8226 cells, a human B lymphocytic cell line endogenously expressing iRhom2; host or cells: RPMI-8226
T1 sequence (Q6PJF5 1-856): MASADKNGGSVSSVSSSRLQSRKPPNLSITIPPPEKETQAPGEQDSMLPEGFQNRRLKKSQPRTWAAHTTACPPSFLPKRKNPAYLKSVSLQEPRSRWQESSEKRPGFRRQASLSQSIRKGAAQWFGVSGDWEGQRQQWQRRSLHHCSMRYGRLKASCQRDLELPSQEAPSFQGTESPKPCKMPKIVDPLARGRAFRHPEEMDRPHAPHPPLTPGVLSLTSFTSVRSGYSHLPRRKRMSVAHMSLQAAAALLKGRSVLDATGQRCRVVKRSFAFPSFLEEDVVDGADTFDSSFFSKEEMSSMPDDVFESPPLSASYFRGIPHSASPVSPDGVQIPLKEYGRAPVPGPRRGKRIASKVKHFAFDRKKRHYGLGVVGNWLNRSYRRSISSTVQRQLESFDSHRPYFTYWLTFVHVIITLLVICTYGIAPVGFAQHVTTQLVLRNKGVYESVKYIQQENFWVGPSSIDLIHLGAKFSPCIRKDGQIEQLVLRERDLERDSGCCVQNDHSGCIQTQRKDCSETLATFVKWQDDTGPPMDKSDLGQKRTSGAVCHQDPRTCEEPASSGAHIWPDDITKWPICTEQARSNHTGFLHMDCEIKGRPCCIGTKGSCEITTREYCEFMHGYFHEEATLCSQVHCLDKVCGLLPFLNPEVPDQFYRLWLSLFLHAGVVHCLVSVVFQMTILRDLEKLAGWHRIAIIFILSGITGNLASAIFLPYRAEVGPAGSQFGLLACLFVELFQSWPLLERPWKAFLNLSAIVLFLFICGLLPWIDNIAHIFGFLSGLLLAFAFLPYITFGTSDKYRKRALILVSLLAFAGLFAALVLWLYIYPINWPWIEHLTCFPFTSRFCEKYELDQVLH
Test: FACS binding to RPMI-8226 cells endogenously expressing iRhom2
Conditions: antibody at 3 μg/ml
Description: In this study, binding specificity analyses of the humanized antibody 42-B-02 as a representative example of the antibodies of the invention in cell lines endogenously expressing iRhom2 were performed. The studies were conducted on RPMI-8226 cells, a human B lymphocytic cell line endogenously expressing iRhom2 but being endogenously negative for iRhom1, on THP-1 cells, a human monocytic cell line endogenously expressing both iRhom2 and iRhom1 and on RH-30 cells, a human […] cell line endogenously negative for iRhom2 but endogenously expressing iRhom1.
In brief, human RPMI-8226 cells (Deutsche Sammlung von Mikroorganismen und Zellkulturen, Germany), THP-1 cells (American Type Culture Collection, USA) and RH-30 cells (Deutsche Sammlung von Mikroorganismen und Zellkulturen, Germany) were harvested with 10 mM EDTA in PBS, washed and resuspended in FACS buffer (PBS, 3% FBS, 0.05% sodium azide), and seeded in Nunc U-bottom 96-well plates (Thermo Fisher Scientific, USA) at approximately 2×10^5 cells per well. In order to pellet cells and remove supernatants, the plates were centrifuged at 1,500 rpm and 4° C. for 3 minutes. […] Finally, cells were resuspended in 150 μl per well of FACS buffer and analyzed using a BD Accuri™ C6 Plus flow cytometer (Becton Dickinson, Germany).

binding to RPMI-8226 cells (endogenously expressing iRhom2, negative for iRhom1): strong binding
B1: 42-B-02: humanized antibody binding human iRhom2; HCVD SEQ ID NO 33, LCVD SEQ ID NO 37 (antibody, V domains shown)
VH: QVTLRESGPALVKPTQTLTLTCTFSGFSLSTFGRGVGWIRQPPGKALEWLAHIWWDDEKYYNSALKSRLTISKDTSKNQVVLTITNMDPVDTATYYCARIQNYGSNYWYFDVWGQGTLVTVSS
VL: AIQLTQSPSSLSASVGDRVTITCRASSRISYMFWYQQKPGKAPKVLIYDTSNLASGVPSRFSGSGSGTDYTLTISSLQPEDFATYYCQQWNSYPLTFGQGTKLEIK
modifications: antibody sequences
